Publication PMC12052159

Key:
Test in all cases: EMSA
Settings in all cases: EMSA with 5' 32P PCR fragments, MarA 1, 2 or 4 uM, PAGE at 150 V; buffer, salt, pH and temperature not given (cited method)
MarA (Escherichia coli) = biological target: T1, MarA (Escherichia coli) (UniProt P0ACH5)
T1 sequence: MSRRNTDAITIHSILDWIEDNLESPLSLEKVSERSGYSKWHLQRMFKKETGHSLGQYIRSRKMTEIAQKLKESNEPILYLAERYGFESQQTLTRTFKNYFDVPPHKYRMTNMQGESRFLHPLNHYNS

Rob (Escherichia coli) = biological target: T2, Rob (Escherichia coli) (UniProt P0ACI0)
T2 sequence: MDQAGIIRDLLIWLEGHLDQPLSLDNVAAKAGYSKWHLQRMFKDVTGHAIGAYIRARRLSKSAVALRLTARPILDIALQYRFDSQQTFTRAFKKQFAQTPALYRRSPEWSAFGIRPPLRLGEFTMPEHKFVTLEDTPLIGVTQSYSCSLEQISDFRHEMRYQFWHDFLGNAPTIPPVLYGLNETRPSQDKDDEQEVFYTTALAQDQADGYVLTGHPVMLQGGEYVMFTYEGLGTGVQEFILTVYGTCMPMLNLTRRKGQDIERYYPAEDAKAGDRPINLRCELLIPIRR

SoxS (Escherichia coli) = biological target: T3, SoxS (Escherichia coli) (UniProt P0A9E2)
T3 sequence: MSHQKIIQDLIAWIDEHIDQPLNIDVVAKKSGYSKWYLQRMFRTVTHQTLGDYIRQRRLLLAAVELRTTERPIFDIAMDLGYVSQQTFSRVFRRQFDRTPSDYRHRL

Row | Sequence | binding (MarA (Escherichia coli)) | binding (Rob (Escherichia coli)) | binding (SoxS (Escherichia coli))
1 | AATTCATTGGCCAGAGGGTTTGGTTGGGTGAGAATGTGACGGTTTTGCCTGGAACAATTATTGGTAATGGAGTCGTAGTCGGCGCCAATTCTGTTGTTAGAGGTTCTATTCCCGAAAATACTGTCATTGCGGGAGTACCAGCAAAAATCATAAAGAAATACAATCATGAGACCAAATTATGAAGCTTCGGGC / GCCCGAAGCTTCATAATTTGGTCTCATGATTGTATTTCTTTATGATTTTTGCTGGTACTCCCGCAATGACAGTATTTTCGGGAATAGAACCTCTAACAACAGAATTGGCGCCGACTACGACTCCATTACCAATAATTGTTCCAGGCAAAACCGTCACATTCTCACCCAACCAAACCCTCTGGCCAATG [wbbK regulatory region] | no binding |  | 
2 | AATTCCATGGTGTACGGTTCCTGCGAGATGGGAAAGTAAAAATCCGCGGCATGATATAGCAATTATCGATAATTAACATCCACACATTTTACGCTACATTTGCGCATTAAAAATTATTTGTTATTTACAAGCGCGGCAAGGGCCGCCAGTCTTCAGCCACAAATTTTGGTTGCGGGCGAAAAAATGCGACAATACATACAATTGCCCGAATAGGTTGAAAAACAGGATTGATATGAAGCTTCGGGC / GCCCGAAGCTTCATATCAATCCTGTTTTTCAACCTATTCGGGCAATTGTATGTATTGTCGCATTTTTTCGCCCGCAACCAAAATTTGTGGCTGAAGACTGGCGGCCCTTGCCGCGCTTGTAAATAACAAATAATTTTTAATGCGCAAATGTAGCGTAAAATGTGTGGATGTTAATTATCGATAATTGCTATATCATGCCGCGGATTTTTACTTTCCCATCTCGCAGGAACCGTACACCATGG [lpxLmut3 regulatory region] | binds |  | 
3 | AATTCTGCAACTAAACCGTGGCACAAATGGGCAATTTATCCATCGGTAAAATACTATAAAATAGCTTTAGAAAATTCCCCCTGGAAAGATGACTCTCCACGAGATGCGAAATCAATTATTGAATTTAAAAAAAGATATAAACATCTTTTAGTGCAACATCATTATATCTCAGGAATTATAGCAGGAGTCTGTTATCTTTGCCGAAAATATTACCGTAAATAACATTTAACTGGTTTATTATGAAGCTTCGGGC / GCCCGAAGCTTCATAATAAACCAGTTAAATGTTATTTACGGTAATATTTTCGGCAAAGATAACAGACTCCTGCTATAATTCCTGAGATATAATGATGTTGCACTAAAAGATGTTTATATCTTTTTTTAAATTCAATAATTGATTTCGCATCTCGTGGAGAGTCATCTTTCCAGGGGGAATTTTCTAAAGCTATTTTATAGTATTTTACCGATGGATAAATTGCCCATTTGTGCCACGGTTTAGTTGCAG [rfaY (waaY) regulatory region] | binds | binds | binds
4 | AATTCTGCGTAAGCAAGCTGATTAAGAATTGACTGGAATTTGGGTTTCGAGTGTGTTTGTGCTAAACTGGCCCGCCGAATGTATAGTACACTTCGGTTGGATAGGTAATTTGGCGAGATAATACGATGAAGCTTCGGGC / GCCCGAAGCTTCATCGTATTATCTCGCCAAATTACCTATCCAACCGAAGTGTACTATACATTCGGCGGGCCAGTTTAGCACAAACACACTCGAAACCCAAATTCCAGTCAATTCTTAATCAGCTTGCTTACGCAG [lpxCmut regulatory region] | binds more weakly |  | 
5 | GCCCGAAGCTTCATAACTGTAACCTTCGAATTATGGAGTCAGAGACAATCTCAGACACGAATGTCTGTAATCATACCATCACATCCGAATCCCTTCAGCCCTTTACATAGAGGTGCAAGGATGCTAATTGCAACAAACTAGTTTGGGTTTTAGCTAGTCCTTCATGGCGGATGTTGGTTTTGCATGTGAATAGTGCG / AATTCGCACTATTCACATGCAAAACCAACATCCGCCATGAAGGACTAGCTAAAACCCAAACTAGTTTGTTGCAATTAGCATCCTTGCACCTCTATGTAAAGGGCTGAAGGGATTCGGATGTGATGGTATGATTACAGACATTCGTGTCTGAGATTGTCTCTGACTCCATAATTCGAAGGTTACAGTTATGAAGCTTCGGGC [waaD regulatory region] | no binding |  | 
6 | GCCCGAAGCTTCATAGTAAATAGCTGACTTATGGATGTGCTGGGGATTCTATGTATTTAGCTGTGGCTTTACCATTACTTTTCCCGTTTTTGACTTAAATAGCTTCAGTTTGGTCTGATCTGCCGCTACATCTTCATTTTTTTTGTATTTTTATGCGATTCATTGAAACTCGGCCCG / AATTCGGGCCGAGTTTCAATGAATCGCATAAAAATACAAAAAAAATGAAGATGTAGCGGCAGATCAGACCAAACTGAAGCTATTTAAGTCAAAAACGGGAAAAGTAATGGTAAAGCCACAGCTAAATACATAGAATCCCCAGCACATCCATAAGTCAGCTATTTACTATGAAGCTTCGGGC [kdtA (waaA) regulatory region] | binds |  | 
7 | GCCCGAAGCTTCATATCAATCCTGTTTTTCAACCTATTCGGGCAATTGTATGTATTGTCGCATTTTTTCGCCCGCAACCAAAATTTGTGGCTGAAGACTGGGCGAAATTGCCGCGCTTGTAAATAACAAATAATTTTTAATGCGCAAATGTAGCGTAAAATGTGTGGATGTTAATTATCGATAATACATATATCATGCCGCGGATTTTTACTTTCCCATCTCGCAGGAACCGTACACCATGG / AATTCCATGGTGTACGGTTCCTGCGAGATGGGAAAGTAAAAATCCGCGGCATGATATATGTATTATCGATAATTAACATCCACACATTTTACGCTACATTTGCGCATTAAAAATTATTTGTTATTTACAAGCGCGGCAATTTCGCCCAGTCTTCAGCCACAAATTTTGGTTGCGGGCGAAAAAATGCGACAATACATACAATTGCCCGAATAGGTTGAAAAACAGGATTGATATGAAGCTTCGGGC [lpxLmut1 regulatory region] | binds more weakly |  | 
8 | GCCCGAAGCTTCATATCAATCCTGTTTTTCAACCTATTCGGGCAATTGTATGTATTGTCGCATTTTTTCGCCCGCAACCAAAATTTGTGGCTGAAGACTGGGCGAAATTGCCGCGCTTGTAAATAACAAATAATTTTTAATGCGCAAATGTAGCGTAAAATGTGTGGATGTTAATTATCGATAATTGCTATATCATGCCGCGGATTTTTACTTTCCCATCTCGCAGGAACCGTACACCATGG / AATTCCATGGTGTACGGTTCCTGCGAGATGGGAAAGTAAAAATCCGCGGCATGATATAGCAATTATCGATAATTAACATCCACACATTTTACGCTACATTTGCGCATTAAAAATTATTTGTTATTTACAAGCGCGGCAATTTCGCCCAGTCTTCAGCCACAAATTTTGGTTGCGGGCGAAAAAATGCGACAATACATACAATTGCCCGAATAGGTTGAAAAACAGGATTGATATGAAGCTTCGGGC [lpxL regulatory region] | binds | binds | binds
9 | GCCCGAAGCTTCATATCAATCCTGTTTTTCAACCTATTCGGGCAATTGTATGTATTGTCGCATTTTTTCGCCCGCAACCAAAATTTGTGGCTGAAGACTGGGCGAAATTGCCGCGCTTGTAAATAACAAATAATTTTTAATGCTGTAATGTAGCGTAAAATGTGTGGATGTTAATTATCGATAATTGCTATATCATGCCGCGGATTTTTACTTTCCCATCTCGCAGGAACCGTACACCATGG / AATTCCATGGTGTACGGTTCCTGCGAGATGGGAAAGTAAAAATCCGCGGCATGATATAGCAATTATCGATAATTAACATCCACACATTTTACGCTACATTACAGCATTAAAAATTATTTGTTATTTACAAGCGCGGCAATTTCGCCCAGTCTTCAGCCACAAATTTTGGTTGCGGGCGAAAAAATGCGACAATACATACAATTGCCCGAATAGGTTGAAAAACAGGATTGATATGAAGCTTCGGGC [lpxLmut2 regulatory region] | binds |  | 
10 | GCCCGAAGCTTCATCGTATTATCTCGCCAAATTACCTATCCAACCGAAGTGTACTATACATTCGGCGGGCCAGTTTAGCACAAAGAGCCTCGAAACCCAAATTCCAGTCAATTCTTAATCAGCTTGCTTACGCAG / AATTCTGCGTAAGCAAGCTGATTAAGAATTGACTGGAATTTGGGTTTCGAGGCTCTTTGTGCTAAACTGGCCCGCCGAATGTATAGTACACTTCGGTTGGATAGGTAATTTGGCGAGATAATACGATGAAGCTTCGGGC [lpxC regulatory region] | binds | binds | binds
11 | GCCCGAAGCTTCATGATGAGCATTCAGATAGTGGTTCACGCGCACGGGTTGCGCACCGCCGGAGTAAGGATTTACTGAGGCTAGCGACGCCATCATAACGAGCAAAAAGACAGATCGTCAAAGGAGAATCGTGAGGAAATGCTGCATTGCTGACATTTACGCCG / AATTCGGCGTAAATGTCAGCAATGCAGCATTTCCTCACGATTCTCCTTTGACGATCTGTCTTTTTGCTCGTTATGATGGCGTCGCTAGCCTCAGTAAATCCTTACTCCGGCGGTGCGCAACCCGTGCGCGTGAACCACTATCTGAATGCTCATCATGAAGCTTCGGGC [pbpGmut regulatory region] | no binding |  | 
12 | GCCCGAAGCTTCATGATGAGCATTCAGATAGTGGTTCACGCGCACGGGTTGCGCACCGCCGGAGTAAGGATTTACTGAGGCTAGCGACGCCATCATAACGAGCAAAAAGTGCGATCGTCAAAGGAGAATCGTGAGGAAATGCTGCATTGCTGACATTTACGCCG / AATTCGGCGTAAATGTCAGCAATGCAGCATTTCCTCACGATTCTCCTTTGACGATCGCACTTTTTGCTCGTTATGATGGCGTCGCTAGCCTCAGTAAATCCTTACTCCGGCGGTGCGCAACCCGTGCGCGTGAACCACTATCTGAATGCTCATCATGAAGCTTCGGGC [pbpG regulatory region] | binds |  | 
